Measured values from the nanobody polyreactivity screen of Harvey et al. (2022).

Assay: yeast display, Sf9 membrane polyspecificity reagent, FACS + sequencing; frameworks hold sequencing errors
Summary of the method: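 Using colony PCR, genes from sorted yeast display clones were amplified, then sequenced on MiSeq at 2 × 250 and filtered by CDR length. The clones had been stained with 10% biotinylated, detergent-solubilized Sf9 membrane reagent for 1 hour at 4 °C and sorted by FACS into low and high (top ~1%) gates on anti-HA and streptavidin fluorescence. Polyreactivity labels come from the gate of origin.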

Sequence	polyreactivity (PSR sort gate)
QVQLVESGGGLVQAGGSLRLSCAASGSTFRKDAMGWYRQAPGKERELVAAISSSGGDTYYADSVKGRFTISRDNAKNTVYLQMNSLKPEDTAVYYCNTKRPYRVYFRYGYWGQGTQVTVSS	high polyreactivity
QVQLVESGGGLVQAGGSLRISCAASGRTFWRNAMGWYRQAPAKERELVAAISRGGSTNYADSVKGRFTISRDNAKNTVYLQMNSLKPEDTAVYYCAARYYYRYNYWGQGTQVTVSS	high polyreactivity
QVQLVESGGGLVQAGGSLRLSCAASGSIFYWYAMGWYRQEPGKERELVAAIDISDDTYYADSVKGRYTISRDNAKNTVYLLMNRLKPEDTAVYYCATDEWYLFEYPFYYWGQGSQVTVSS	high polyreactivity
QVQHVESGGGLVQAGGSLRLICAASGSTFGYNAMGWYRHAPGKERELVARITSSGGATYYADSVKWRFTISRDNAKHTVYLLKNSLKPEDTAVYYCAAGYPYRAVYRYYYWGQGTQVTVSS	high polyreactivity
QVQHVESAGGLVQAGGSLRLSCAASGSTFSDYAMGRYRQAPGKERELVAAISRSGGSTYYADSVKGRFTISRDNAKNTVYLQMNSLKPEDTAVYYCAASRATLLRYGYWGQGTQVTVSS	low polyreactivity
QVQLVESGGGIVQAGGSLRLSCAASGFIFKKYVMGWYRQAPGKERELVAGISRSGGSTYYADSVKGRFTISRENAKITVYFQMNSLKPEDTAVYYGAAYIYQSPTRGGGYWGQGTQVTVSS	high polyreactivity
QVQLVESGGGLVQAGGSLRLSCAASGSNYRFYAMGWYRQAPGKERELVATISSSGGTTYYADSVKVRITISRDNAKNNVFLQMNSLKPEDTAVYYCAKDAFGWGRVYYYRSGYWGQGTQVTVSS	high polyreactivity
QVQLVESGGGLVQAGGSLRLSCAASGSTFAPYAMGWYRQAPGKERELVASIRSTGSTNYADSVKGRFTISRDNAKNTVYLQMNSLKPEDTAVYYCAARYRRYQYRVKVDYYYWGQGTQVTVSA	high polyreactivity
QVQLVESGVGLVQAGGSLRLSCAASGRIFPTYAMGWYRQAPGQERELVAGITSGGRTNYADSVKGRFTISRDNAKNTVYLQMNSLKPEDTAVYYCAKRVWPRDQYGKRNPRMDYWGQGTQVTVSS	high polyreactivity
QVQLVESGGGLVQAGGSLRLSCAASGRIFWFYTMGWNRQAPGKERELVARITTSGGSTYYADSVKGRFTISRDNAKNTVYLQMNSLKPEDTAVYYCAARPRDYHSFSLDYYYWGQGTQVTVSS	high polyreactivity
QVQHVESGGGLVQAGGSLRLSCAASGITFKPNAMGWSRHAPGKERELVAAIDSGGSTNYAYSVKGRFTISLDNAKNTVYLQMNSLKPEDTAVYYCAAPYQDRDLQVSYSTYEGGYWGQGTQVTVSS	low polyreactivity
QVQLVESGGGLVQAGGSLRLSCAASGIIFSGYAMGWYRQAPGKERELVASIRSGSNTYYADSVKGRFRISRDNAKNTVYLQMNSLKPEDTAVYYCAARVVPATFRFIRYPHPYYYWGQGTQVTVSS	low polyreactivity
QVQLEESGGGLVQAGGSLRLSSAASGFTFAFYAMGWYRQAPGKERELVAAISRRGGSTTYADSVKGRFTISRDNAKNTVYLQMNSLKPEDTAVYYCNAVSTRNPGPDYYYWGQGTQVNVSS	high polyreactivity
QVQLVESGGGLVQAGGSLRLSCAASGIIYTTNAMGWYRQAPGKERELVAAIRRSGSTYYADSVKGRFTISRDNAKNNVYLQMNSLKPEDTAVYYCNAKVHYGSRGDYWGQGTQLTVSS	low polyreactivity
QVQLVESGGGLVQAGGSLRLSCAASGSYFDYYAMGCYTQAPGKERELVAAISWRGGTTYYADSVKGRFTISRDTAKKTVYLQMNSLKPEETAVYYCNADKRFRRYDYWGQGTQVTVSS	high polyreactivity
QVQLVESGGGLVQAGGSLRLICAASGFIFSFNAMGWYRQAPGKERELVAAIRRSAGSTYYADSVKGRFTISRDNAKNTVYLQMNSLKPEDTAVYYCATVTRLYRHGYWGQGTQVTVSS	high polyreactivity

Sequence	polyreactivity (PSR sort gate)
QVQLVESGGGLVQAGGSLRLSCAASGLIFVYYTMGWYRQAPGKERELVARISQSGGTTYYADSVKGRFTISRDNAKNTVYLQMNSLKPEDTAVYYCNARRVGVHYRYDYWGQGTQVTVSS	high polyreactivity
QVQLVESGGGLVQAGGSLHLSCAASGRTFVWYAMGWYRQAPGKERELVAAISWSGTSTYYADSVKGRFTNSRDYAKYNVYLQMNSLKPEDTAVYYCYEKYYYWGQGTQVTVSS	high polyreactivity
QVQLVESGGGLVQAGGSLRLSCAASGFTLGFYAMGWYRQEPGKERELVAAINWRGGSTYYADSVKGRFTISRDNAKNTVYLLMNSLKPEDTAVYYCNRVYRPSRYDYWGQGTQVTVSS	high polyreactivity
QVQLVESGGGLVQAGGSLRLSCAASGSTFHYYAMGWYRQAPGKERELVAAINSGARTYYADSVKGRFTISRDNAKNTVYLQMNSLKPEDTAVYYCNKAFQWSGGQVSYDFWGQGTQVTVSS	low polyreactivity
QVQLQESGGGLVQAGGVLRLSCAASGTISGPHVMGWYRQAPGKEREFVAAINDGANTYYADNVKGRFTISRDNAKNTVYLQMNILKPEDTAVYYCAAVFYGDIGHEYWGQGTQVTVSC	low polyreactivity
QVQLVESGGGLVQAGGSLRLSCAASGSIFYGYAMGWYRQAPGKERELVAVITDGGGSTYYADSVKGRFTISRDNAKNTVYLQMNSLKPEDTAVYYCAADSWGPYYYSSYSYDYWGQGTQVTVSS	low polyreactivity
QVQLVESGGGLVQAGGSLRLSCAASGNIFKYYAMGWYRQAPGKERELVAAISWGGSRTYYADSVKGRFTISRDNAKNTVYFQMNILKPEDSAVYYCAAAPRYSWTSVPRYDYWGLGTQVTVSS	high polyreactivity
QVQLVESGGGLVQAGGSLRLSCAASGRTFGVYAMGWYRQATGKERELVAGIRWRGGSTYYADSVKGRFTISRDNAKNTVYLQMNSLKPEDTAVYYCAAKVYYLYDSIWAWVIIRYDYWGQGTQVTVSS	low polyreactivity
QVQLVESGGGLVQAGGSLRLSCAASGRTFRVNAMGWYRQAPGKERELVAAITWRGGSTYYADSVKGRFTISRDNAKNTVYLQMNSLKPEDTAVYYCAARYSSSSRRQKSDYWGQGTQVTVSS	high polyreactivity
QVQLVESGGGLVQAGGSLRLSCAASGRIFVGYAMGWFRQAPGKERELVAAINRSGSSTYYADSVNGRFTISRDNAKNTVYLQMNSLKPEDTAVYYCAARYYPRVRYATYYGSYYWGQGTQVTVSS	high polyreactivity
KVQLVESGGGLVQAGGSLRVRCAASGFTFGVYAMGWYRQAPGKEREFVAVITWRGGRTYYADSVKGRFTISRDNAQNTVYLQMNSLKPEDTGVYYCNARPRIYLTLYYWGQGTQVSVSS	high polyreactivity
QVQLVQSGGGLVQAGGSLRLSCAAMGWYRQAPGKERELVATITWSGGSTYYADSVKGRFTISRDNAKNTVYLQMNSLKPEDTAVYYCNARATLLSPANTILGYDYWGQGTQVTVSS	low polyreactivity
QVQLVESGGGLVQAGGSLRLSCAASGSIFGGNAMGWSRQAPGKERELVAVITSGGSTYYADSVKGRFTISRDNAKNTVYLQMNSLKPEDTAVYYCNVDRLARKAHYDYWGQGTQVTVSS	high polyreactivity
QVQLVESGGGLVQAGGSLRLSCAASGSTFYTYAMGWYRQAPGKERELVAAINRSGGTTYYADSVKGRFTISRDNAKNTVYLQMNSLNPEDTAVYYCARRRYGYDYWGQGTQVTVSS	high polyreactivity
QVQLVESGRGLVQAGGSLRLSCAASGFTFSLNAMGWYRQAPGKERELVAGISIGGSTNYADSVKGRFTISRDNAKNTVYLQMNSLKPEDTAVYYCNAYYWSATWYFAAWDYYYWGQGTQVTVSS	high polyreactivity
